Literature values in publication PMC10586765.

Biological target: UBL4A (Homo sapiens) (UniProt P11441)
Experiment: surface plasmon resonance

Sequence of UniProt P11441 (P11441 whole entry): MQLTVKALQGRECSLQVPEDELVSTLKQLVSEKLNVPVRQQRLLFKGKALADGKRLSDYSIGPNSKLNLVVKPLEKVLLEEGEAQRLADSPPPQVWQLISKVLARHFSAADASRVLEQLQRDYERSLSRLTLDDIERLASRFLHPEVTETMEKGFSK

Kd: 2.2 nM
Substance: BAG6 (from UniProt P46379)
